# US7267822
# Where no end group is shown, it is not given here.
# B1: peptide 2702.75-84 (peptide)
# peptide: RENLRIALRY-NH2
# modifications: also: acetate salt
# Target: recombinant hsc70 (Stressgen, Victoria, Canada)
# Experiment: competition ELISA on coated hsc70 against biotinylated-2702.75-84 (3 uM)
binder,measurement,value
B1,IC50,7 µM
